According to patent publication US20030166567:

How the values were obtained:
[1] = tested on: 10-mer (SEQ ID NO:13) cleavage domain peptide
[2] = tested on: 9-mer (SEQ ID NO:12) cleavage domain peptide
[3] = tested on: 19-mer (SEQ ID NO:11) cleavage domain peptide

Chain of Active MMP-9 enzyme (chain, as listed by the source): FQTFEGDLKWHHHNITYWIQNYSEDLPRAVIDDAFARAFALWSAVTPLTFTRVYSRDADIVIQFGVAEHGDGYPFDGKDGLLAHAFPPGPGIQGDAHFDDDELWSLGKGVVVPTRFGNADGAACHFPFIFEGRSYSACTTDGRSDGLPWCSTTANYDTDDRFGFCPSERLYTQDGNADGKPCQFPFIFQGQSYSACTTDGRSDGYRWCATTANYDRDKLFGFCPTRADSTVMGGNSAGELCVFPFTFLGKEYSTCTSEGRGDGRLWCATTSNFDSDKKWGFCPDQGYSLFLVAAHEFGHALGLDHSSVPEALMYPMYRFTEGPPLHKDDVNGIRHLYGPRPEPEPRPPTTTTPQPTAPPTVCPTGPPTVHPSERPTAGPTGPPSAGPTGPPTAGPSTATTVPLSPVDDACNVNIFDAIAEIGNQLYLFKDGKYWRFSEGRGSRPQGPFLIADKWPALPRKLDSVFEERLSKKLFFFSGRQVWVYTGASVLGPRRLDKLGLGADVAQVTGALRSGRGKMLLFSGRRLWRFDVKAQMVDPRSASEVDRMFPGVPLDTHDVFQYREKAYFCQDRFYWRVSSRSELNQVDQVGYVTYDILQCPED

## Active MMP-9 enzyme
[1]
  extended time course of MMP-9 catalyzed hydrolysis of collagen: The 10-mer (SEQ ID NO:13) peptide is less effective at preventing the destruction of collagen at long time points (FIG. 9) than is the 9-mer (SEQ ID NO:12) peptide (FIG. 10)
[2]
  extended time course of MMP-9 catalyzed hydrolysis of collagen: The 10-mer (SEQ ID NO:13) peptide is less effective at preventing the destruction of collagen at long time points (FIG. 9) than is the 9-mer (SEQ ID NO:12) peptide (FIG. 10)
[3]
  extended time course of MMP-9 catalyzed hydrolysis of collagen: the 19-mer (SEQ ID NO:11) effectively inhibits the MMP-9 catalyzed hydrolysis of collagen to beyond 1000 minutes
